Assay results: article PMC2626662

Columns and labels:
Assay in all cases: SPR
[1] = target: HLA-B*4405^EENL (human | not stated | Epstein-Barr virus)
[2] = target: HLA-B*4402^EENL (human | not stated | Epstein-Barr virus)
[3] = target: HLA-B*4403^EENL (human | not stated | Epstein-Barr virus)
DM1 TCR (human) = target: DM1 TCR (human)

DM1 TCR
Kd [1]: 0.3 µM
Kd calc [1]: 0.23 µM
koff [1]: 0.02 s⁻¹
Kd [2]: 6.3 µM
Kd calc [2]: 14 µM
koff [2]: 0.2 s⁻¹
Kd [3]: 9.4 µM
Kd calc [3]: 16 µM
koff [3]: 0.25 s⁻¹

HLA-B*4405^EENL (from UniProt P61769 21-119) (peptide-MHC)
Kd (DM1 TCR (human)): 1 µM
